# Biological target: T1, HLA-A*02:01 (human)
# T1 construct: MHC class I monomer of the UV-ligand exchange assay; also called peptide-receptive MHC molecules; MHC class I
# Test: UV peptide-exchange ELISA
# How it was run: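 Peptide-MHC complexes formed by UV-mediated exchange of a UV-cleavable peptide for the test peptide; exchange yield quantified by β2m ELISA. Diluted 100-fold, captured on streptavidin-coated plates 1 h at 37 °C, detected with HRP anti-β2m and TMB at 450 nm against refolded HLA-A*02:01 monomer standards (15-500 ng/ml).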
row,peptide exchange yield,Binder
1,≥ 75%,FLVEAPHDWDL
2,50 to 75%,FVFEAPYTL
3,50 to 75%,YIIDSAQAV
4,≥ 75%,FLVETGFLHV
5,50 to 75%,YTIPLAIKL
6,≥ 75%,YLLPLLQRL
7,50 to 75%,YLLEENKIKL
8,50 to 75%,YILGKFFAL
9,50 to 75%,FLYPFPLALF
10,50 to 75%,VIAELPPKVSV
11,≥ 75%,YLLREWVNL
12,50 to 75%,YLAELVTPIL
13,≥ 75%,GLSEISLRL
14,50 to 75%,FMEPTLLML
15,50 to 75%,FLWQHVELVL
16,50 to 75%,YLDRKLLTL
17,≥ 75%,YMIGSEVGNYL

# The next lines start with the binder.
row,Binder,peptide exchange yield
1,FLTDLFAQL,≥ 75%
2,FLLGPEALSFA,≥ 75%
3,FLEEGGVVTV,50 to 75%
4,FLSPQQPPLL,50 to 75%
5,FLDEDDMSL,20 to 50%
6,FIMEGGAMV,50 to 75%
7,FLDALLTDV,50 to 75%
8,FLSDQPEPYL,20 to 50%
9,FLDPSLDPLL,50 to 75%
10,ALIFKIASA,50 to 75%
11,FLPELPADLEA,50 to 75%
12,FLFEPVVKAFL,50 to 75%
13,FLLSINDFL,50 to 75%
